Results reported in paper PMC9035890.

What was measured:
[1] = target: Recombinant biotinylated protein A (Thermo Fisher 29989) (UniProt P38507); test: SPR; Biacore T200, 25°C; biotinylated ligand captured on a CAP chip through the Biotin CAPture reagent; NISTmAb sample as analyte at 200 nmol/L in PBS-P+ pH 7.4, 50 μL/min, 100 s association, 300 s dissociation; response at the end of the association phase divided by that of NISTmAb Bex, mean of three independent experiments
[2] = target: Recombinant biotinylated protein L (Thermo Fisher 21189) (UniProt Q51918); test: as above

Row | binding relative to NISTmAb Bex [1] [%] | binding relative to NISTmAb Bex [2] [%] | Substance
1 | 94.7 | 99.3 | NISTmAb oxidised in solution, 0.3% H2O2, 30 min (0.3%Nox0.5hr) (antibody)
2 | 38.5 | 92.6 | NISTmAb oxidised in solution, 0.3% H2O2, 32 h (0.3%Nox32hr) (antibody)
